From PMC6374351, “The Fusion Activity of IM30 Rings Involves Controlled Unmasking of the Fusogenic Core” (Frontiers in Plant Science, 2019)
Blank lines part the entries; values can stand above or below the molecule they belong to.

Columns and labels:
Assay in all cases: SEC; Superdex 200 HR 16/60 GL, 4°C, 0.5 mL/min, 20 mM HEPES pH 7.6; apparent masses from Kav against marker proteins; apparent oligomeric state = extrapolated mass / calculated monomer mass (with His-tag)
[1] = target: IM30 α1-3 (helices 1-3) (Synechocystis sp. PCC 6803)
[2] = target: IM30 α1-4 (helices 1-4) (Synechocystis sp. PCC 6803)
[3] = target: the molecule itself

- stoichiometry N [1]: 1.76
Molecule: IM30 α1-3 (helices 1-3) (domain or fragment)

- stoichiometry N [2]: 2.2
Molecule: IM30 α1-4 (helices 1-4) (domain or fragment)

B1: inner membrane-associated protein of 30 kDa (IM30) wt, Synechocystis sp. PCC 6803 (natural protein, UniProt Q55707 1-267, looked up)
chain: MGLFDRLGRVVRANLNDLVSKAEDPEKVLEQAVIDMQEDLVQLRQAVARTIAEEKRTEQRLNQDTQEAKKWEDRAKLALTNGEENLAREALARKKSLTDTAAAYQTQLAQQRTMSENLRRNLAALEAKISEAKTKKNMLQARAKAAKANAELQQTLGGLGTSSATSAFERMENKVLDMEATSQAAGELAGFGIENQFAQLEASSGVEDELAALKASMAGGALPGTSAATPQLEAAPVDSSVPANNASQDDAVIDQELDDLRRRLNNL
notes: IM30 (Vipp1) of the cyanobacterium Synechocystis sp; PCC 6803, wild type, helices 1-7; the last residue is 267 (α4-7 = amino acids 147-267); Forms rings of variable size; also called Vipp1; full-length protein; source: heterologously expressed and purified (as in Fuhrmann et al., 2009a)
- binding result [3]: binds
